Experimental data: patent US20110183888A1
Square brackets hold non-standard residues; d marks the D form. Ends that are not written are not given here.

What was measured:
Experiment in all cases: cell-based or functional assay
[1] = molecular target: JNK2, P45984
[2] = molecular target: JNK3, P53779
[3] = molecular target: JNK1, P45983
Chain of JNK1, P45983 (P45983 whole entry): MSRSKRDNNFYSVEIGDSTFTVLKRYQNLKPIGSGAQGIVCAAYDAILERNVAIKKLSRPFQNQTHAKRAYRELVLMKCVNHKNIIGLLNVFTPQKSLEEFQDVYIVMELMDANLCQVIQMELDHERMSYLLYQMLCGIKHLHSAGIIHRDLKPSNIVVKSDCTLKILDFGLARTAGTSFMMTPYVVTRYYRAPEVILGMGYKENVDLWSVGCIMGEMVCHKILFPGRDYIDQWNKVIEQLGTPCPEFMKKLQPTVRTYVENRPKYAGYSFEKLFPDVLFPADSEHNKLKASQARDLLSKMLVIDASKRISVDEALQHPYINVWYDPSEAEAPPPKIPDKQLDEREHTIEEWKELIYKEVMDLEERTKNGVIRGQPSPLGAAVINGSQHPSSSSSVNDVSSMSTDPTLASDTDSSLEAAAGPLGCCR

Chain of JNK3, P53779 (P53779 whole entry): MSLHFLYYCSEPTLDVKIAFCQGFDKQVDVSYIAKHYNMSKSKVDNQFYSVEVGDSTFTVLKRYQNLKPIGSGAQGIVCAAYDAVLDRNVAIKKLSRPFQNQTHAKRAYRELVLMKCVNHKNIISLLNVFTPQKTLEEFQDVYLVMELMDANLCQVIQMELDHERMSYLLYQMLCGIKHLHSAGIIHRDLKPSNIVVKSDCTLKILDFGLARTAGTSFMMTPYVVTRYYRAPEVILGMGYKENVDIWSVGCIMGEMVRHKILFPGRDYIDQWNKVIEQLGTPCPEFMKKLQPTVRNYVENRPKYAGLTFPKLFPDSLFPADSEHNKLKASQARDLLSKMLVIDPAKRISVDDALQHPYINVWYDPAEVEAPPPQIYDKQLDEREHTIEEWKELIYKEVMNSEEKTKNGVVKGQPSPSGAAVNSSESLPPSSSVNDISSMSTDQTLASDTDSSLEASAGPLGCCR

What does the source list for GRKKRRQRRRPPRPKRPTTLNLFPQVPRSQD [L-TAT-IB1(s)]?
inhibition of c-Jun, ATF2 and Elk1 phosphorylation by JNKs (solid phase kinase assay, 33P, SDS-PAGE) [1]: 2.5 µM; inhibition of c-Jun, ATF2 and Elk1 phosphorylation by JNKs (solid phase kinase assay, 33P, SDS-PAGE) [2]: 2.5 µM; inhibition of c-Jun, ATF2 and Elk1 phosphorylation by JNKs (solid phase kinase assay, 33P, SDS-PAGE) [3]: 2.5 µM

Which inhibition of GST-Jun (aa 1-73) phosphorylation by recombinant JNK; fold less efficient than L-TAT-IB1(s) [1] does the source give for [dD][dQ][dS][dR][dP][dV][dQ][dP][dF][dL][dN][dL][dT][dT][dP][dR][dK][dP][dR][dP][dP][dR][dR][dR][dQ][dR][dR][dK][dK][dR]G [D-TAT-IB1(s)] here?
The inhibition of GST-Jun (aa 1-73) phosphorylation by recombinant JNK; fold less efficient than L-TAT-IB1(s) was 10 to 20 fold.

And the inhibition of GST-Jun (aa 1-73) phosphorylation by recombinant JNK; fold less efficient than L-TAT-IB1(s) [2]?
Its inhibition of GST-Jun (aa 1-73) phosphorylation by recombinant JNK; fold less efficient than L-TAT-IB1(s) is 10 to 20 fold.

What about the inhibition of GST-Jun (aa 1-73) phosphorylation by recombinant JNK; fold less efficient than L-TAT-IB1(s) [3] of the same binder?
Its inhibition of GST-Jun (aa 1-73) phosphorylation by recombinant JNK; fold less efficient than L-TAT-IB1(s) is 10 to 20 fold.
